T1: human carcinoembryonic antigen-related cell adhesion molecule 5 (human, UniProt P06731 35-702)
T1 sequence (looked up): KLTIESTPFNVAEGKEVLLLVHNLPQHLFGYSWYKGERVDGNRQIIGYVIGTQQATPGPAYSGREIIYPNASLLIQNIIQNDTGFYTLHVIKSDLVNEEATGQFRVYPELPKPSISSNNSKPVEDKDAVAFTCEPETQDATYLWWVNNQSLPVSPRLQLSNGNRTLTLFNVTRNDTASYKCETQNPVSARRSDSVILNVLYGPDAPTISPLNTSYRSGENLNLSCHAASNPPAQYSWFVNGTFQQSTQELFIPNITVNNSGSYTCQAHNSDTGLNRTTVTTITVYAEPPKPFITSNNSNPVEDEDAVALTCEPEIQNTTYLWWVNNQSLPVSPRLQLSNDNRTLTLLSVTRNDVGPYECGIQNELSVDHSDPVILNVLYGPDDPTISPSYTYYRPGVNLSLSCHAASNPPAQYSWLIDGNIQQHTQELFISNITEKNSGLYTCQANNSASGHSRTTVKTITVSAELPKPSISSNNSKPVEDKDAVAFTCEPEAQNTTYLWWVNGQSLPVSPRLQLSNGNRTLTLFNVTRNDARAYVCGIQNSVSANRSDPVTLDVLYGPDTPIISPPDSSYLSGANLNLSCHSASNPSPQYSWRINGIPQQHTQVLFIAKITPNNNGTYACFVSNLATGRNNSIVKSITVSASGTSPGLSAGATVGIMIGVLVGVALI

B1: TA1-4N1+CEA-4O1 (bispecific antibody, human IgG4 S228P, F234A L235A)
chain 1: EVKLLESGGGLVQPKGSLKLSCAASGFTFNTYAMNWVRQAPGKGLEWVARIRSKYNNYATYYADSVKDRFTISRDDSQSILYLQMNNLKTEDTAMYYCVRHGNFGNSYVSWFAYWGQGTLVTVSSGGGGSGGGGSGGGGSQAVVTQESALTTSPGETVTLTCRSSTGAVTTSNYANWVQEKPDHLFTGLIGGTNKRAPGVPARFSGSLIGDKAALTITGAQTEDEAIYFCALWYSNLWVFGGGTKVEIKRTESKYGPPCPPCPAPEAAGGPSVFLFPPKPKDTLMISRTPEVTCVVVDVSQEDPEVQFNWYVDGVEVHNAKTKPREEQFNSTYRVVSVLTVLHQDWLNGKEYKCKVSNKGLPSSIEKTISKAKGQPREPQVYTLPPCQEEMTKNQVSLWCLVKGFYPSDIAVEWESNGQPENNYKTTPPVLDSDGSFFLYSRLTVDKSRWQEGNVFSCSVMHEALHNHYTQKSLSLSL
chain 2: EVQLVESGGGFVQAGESLTLSCTSSTLTFTPYRMAWYRQAPGKQRDLVADISSGDGRTTNYADFAKGRFTISRDNIKNTVFLRMTNLKPEDTAVYYCNTFVSFVGIARSWGQGTQVTVSSESKYGPPCPPCPAPEAAGGPSVFLFPPKPKDTLMISRTPEVTCVVVDVSQEDPEVQFNWYVDGVEVHNAKTKPREEQFNSTYRVVSVLTVLHQDWLNGKEYKCKVSNKGLPSSIEKTISKAKGQPREPQVCTLPPSQEEMTKNQVSLSCAVKGFYPSDIAVEWESNGQPENNYKTTPPVLDSDGSFFLVSRLTVDKSRWQEGNVFSCSVMHEALHNRFTQKSLSLSL
B2: CEA-4N1+4O1-TA1 (bispecific antibody, human IgG4 S228P, F234A L235A)
chain 1: EVQLVESGGGFVQAGESLTLSCTSSTLTFTPYRMAWYRQAPGKQRDLVADISSGDGRTTNYADFAKGRFTISRDNIKNTVFLRMTNLKPEDTAVYYCNTFVSFVGIARSWGQGTQVTVSSESKYGPPCPPCPAPEAAGGPSVFLFPPKPKDTLMISRTPEVTCVVVDVSQEDPEVQFNWYVDGVEVHNAKTKPREEQFNSTYRVVSVLTVLHQDWLNGKEYKCKVSNKGLPSSIEKTISKAKGQPREPQVYTLPPCQEEMTKNQVSLWCLVKGFYPSDIAVEWESNGQPENNYKTTPPVLDSDGSFFLYSRLTVDKSRWQEGNVFSCSVMHEALHNHYTQKSLSLSL
chain 2: ESKYGPPCPPCPAPEAAGGPSVFLFPPKPKDTLMISRTPEVTCVVVDVSQEDPEVQFNWYVDGVEVHNAKTKPREEQFNSTYRVVSVLTVLHQDWLNGKEYKCKVSNKGLPSSIEKTISKAKGQPREPQVCTLPPSQEEMTKNQVSLSCAVKGFYPSDIAVEWESNGQPENNYKTTPPVLDSDGSFFLVSRLTVDKSRWQEGNVFSCSVMHEALHNRFTQKSLSLSLGGGGSGGGGSEVKLLESGGGLVQPKGSLKLSCAASGFTFNTYAMNWVRQAPGKGLEWVARIRSKYNNYATYYADSVKDRFTISRDDSQSILYLQMNNLKTEDTAMYYCVRHGNFGNSYVSWFAYWGQGTLVTVSSGGGGSGGGGSGGGGSQAVVTQESALTTSPGETVTLTCRSSTGAVTTSNYANWVQEKPDHLFTGLIGGTNKRAPGVPARFSGSLIGDKAALTITGAQTEDEAIYFCALWYSNLWVFGGGTKVEIKRT
B3: CEA-4N1+TA1-4O1 (bispecific antibody, human IgG4 S228P, F234A L235A)
chain 1: EVQLVESGGGFVQAGESLTLSCTSSTLTFTPYRMAWYRQAPGKQRDLVADISSGDGRTTNYADFAKGRFTISRDNIKNTVFLRMTNLKPEDTAVYYCNTFVSFVGIARSWGQGTQVTVSSESKYGPPCPPCPAPEAAGGPSVFLFPPKPKDTLMISRTPEVTCVVVDVSQEDPEVQFNWYVDGVEVHNAKTKPREEQFNSTYRVVSVLTVLHQDWLNGKEYKCKVSNKGLPSSIEKTISKAKGQPREPQVYTLPPCQEEMTKNQVSLWCLVKGFYPSDIAVEWESNGQPENNYKTTPPVLDSDGSFFLYSRLTVDKSRWQEGNVFSCSVMHEALHNHYTQKSLSLSL
chain 2: EVKLLESGGGLVQPKGSLKLSCAASGFTFNTYAMNWVRQAPGKGLEWVARIRSKYNNYATYYADSVKDRFTISRDDSQSILYLQMNNLKTEDTAMYYCVRHGNFGNSYVSWFAYWGQGTLVTVSSGGGGSGGGGSGGGGSQAVVTQESALTTSPGETVTLTCRSSTGAVTTSNYANWVQEKPDHLFTGLIGGTNKRAPGVPARFSGSLIGDKAALTITGAQTEDEAIYFCALWYSNLWVFGGGTKVEIKRTESKYGPPCPPCPAPEAAGGPSVFLFPPKPKDTLMISRTPEVTCVVVDVSQEDPEVQFNWYVDGVEVHNAKTKPREEQFNSTYRVVSVLTVLHQDWLNGKEYKCKVSNKGLPSSIEKTISKAKGQPREPQVCTLPPSQEEMTKNQVSLSCAVKGFYPSDIAVEWESNGQPENNYKTTPPVLDSDGSFFLVSRLTVDKSRWQEGNVFSCSVMHEALHNRFTQKSLSLSL
B4: CEA-4N1-TA1+4O1 (bispecific antibody, human IgG4 S228P, F234A L235A)
chain 1: EVQLVESGGGFVQAGESLTLSCTSSTLTFTPYRMAWYRQAPGKQRDLVADISSGDGRTTNYADFAKGRFTISRDNIKNTVFLRMTNLKPEDTAVYYCNTFVSFVGIARSWGQGTQVTVSSESKYGPPCPPCPAPEAAGGPSVFLFPPKPKDTLMISRTPEVTCVVVDVSQEDPEVQFNWYVDGVEVHNAKTKPREEQFNSTYRVVSVLTVLHQDWLNGKEYKCKVSNKGLPSSIEKTISKAKGQPREPQVYTLPPCQEEMTKNQVSLWCLVKGFYPSDIAVEWESNGQPENNYKTTPPVLDSDGSFFLYSRLTVDKSRWQEGNVFSCSVMHEALHNHYTQKSLSLSLGGGGSGGGGSEVKLLESGGGLVQPKGSLKLSCAASGFTFNTYAMNWVRQAPGKGLEWVARIRSKYNNYATYYADSVKDRFTISRDDSQSILYLQMNNLKTEDTAMYYCVRHGNFGNSYVSWFAYWGQGTLVTVSSGGGGSGGGGSGGGGSQAVVTQESALTTSPGETVTLTCRSSTGAVTTSNYANWVQEKPDHLFTGLIGGTNKRAPGVPARFSGSLIGDKAALTITGAQTEDEAIYFCALWYSNLWVFGGGTKVEIKRT
chain 2: ESKYGPPCPPCPAPEAAGGPSVFLFPPKPKDTLMISRTPEVTCVVVDVSQEDPEVQFNWYVDGVEVHNAKTKPREEQFNSTYRVVSVLTVLHQDWLNGKEYKCKVSNKGLPSSIEKTISKAKGQPREPQVCTLPPSQEEMTKNQVSLSCAVKGFYPSDIAVEWESNGQPENNYKTTPPVLDSDGSFFLVSRLTVDKSRWQEGNVFSCSVMHEALHNRFTQKSLSLSL
B5: 4N1-TA1+CEA-4O1 (bispecific antibody, human IgG4 S228P, F234A L235A)
chain 1: ESKYGPPCPPCPAPEAAGGPSVFLFPPKPKDTLMISRTPEVTCVVVDVSQEDPEVQFNWYVDGVEVHNAKTKPREEQFNSTYRVVSVLTVLHQDWLNGKEYKCKVSNKGLPSSIEKTISKAKGQPREPQVYTLPPCQEEMTKNQVSLWCLVKGFYPSDIAVEWESNGQPENNYKTTPPVLDSDGSFFLYSRLTVDKSRWQEGNVFSCSVMHEALHNHYTQKSLSLSLGGGGSGGGGSEVKLLESGGGLVQPKGSLKLSCAASGFTFNTYAMNWVRQAPGKGLEWVARIRSKYNNYATYYADSVKDRFTISRDDSQSILYLQMNNLKTEDTAMYYCVRHGNFGNSYVSWFAYWGQGTLVTVSSGGGGSGGGGSGGGGSQAVVTQESALTTSPGETVTLTCRSSTGAVTTSNYANWVQEKPDHLFTGLIGGTNKRAPGVPARFSGSLIGDKAALTITGAQTEDEAIYFCALWYSNLWVFGGGTKVEIKRT
chain 2: EVQLVESGGGFVQAGESLTLSCTSSTLTFTPYRMAWYRQAPGKQRDLVADISSGDGRTTNYADFAKGRFTISRDNIKNTVFLRMTNLKPEDTAVYYCNTFVSFVGIARSWGQGTQVTVSSESKYGPPCPPCPAPEAAGGPSVFLFPPKPKDTLMISRTPEVTCVVVDVSQEDPEVQFNWYVDGVEVHNAKTKPREEQFNSTYRVVSVLTVLHQDWLNGKEYKCKVSNKGLPSSIEKTISKAKGQPREPQVCTLPPSQEEMTKNQVSLSCAVKGFYPSDIAVEWESNGQPENNYKTTPPVLDSDGSFFLVSRLTVDKSRWQEGNVFSCSVMHEALHNRFTQKSLSLSL
B6: 4N1-TA1+4O1-CEA (bispecific antibody, human IgG4 S228P, F234A L235A)
chain 1: ESKYGPPCPPCPAPEAAGGPSVFLFPPKPKDTLMISRTPEVTCVVVDVSQEDPEVQFNWYVDGVEVHNAKTKPREEQFNSTYRVVSVLTVLHQDWLNGKEYKCKVSNKGLPSSIEKTISKAKGQPREPQVYTLPPCQEEMTKNQVSLWCLVKGFYPSDIAVEWESNGQPENNYKTTPPVLDSDGSFFLYSRLTVDKSRWQEGNVFSCSVMHEALHNHYTQKSLSLSLGGGGSGGGGSEVKLLESGGGLVQPKGSLKLSCAASGFTFNTYAMNWVRQAPGKGLEWVARIRSKYNNYATYYADSVKDRFTISRDDSQSILYLQMNNLKTEDTAMYYCVRHGNFGNSYVSWFAYWGQGTLVTVSSGGGGSGGGGSGGGGSQAVVTQESALTTSPGETVTLTCRSSTGAVTTSNYANWVQEKPDHLFTGLIGGTNKRAPGVPARFSGSLIGDKAALTITGAQTEDEAIYFCALWYSNLWVFGGGTKVEIKRT
chain 2: ESKYGPPCPPCPAPEAAGGPSVFLFPPKPKDTLMISRTPEVTCVVVDVSQEDPEVQFNWYVDGVEVHNAKTKPREEQFNSTYRVVSVLTVLHQDWLNGKEYKCKVSNKGLPSSIEKTISKAKGQPREPQVCTLPPSQEEMTKNQVSLSCAVKGFYPSDIAVEWESNGQPENNYKTTPPVLDSDGSFFLVSRLTVDKSRWQEGNVFSCSVMHEALHNRFTQKSLSLSLGGGGSGGGGSEVQLVESGGGFVQAGESLTLSCTSSTLTFTPYRMAWYRQAPGKQRDLVADISSGDGRTTNYADFAKGRFTISRDNIKNTVFLRMTNLKPEDTAVYYCNTFVSFVGIARSWGQGTQVTVSS

These binders were tested against T1, human carcinoembryonic antigen-related … (assay: cell-based or functional assay).

Point of comparison: B2, “EC50 (pM) of TCB-mediated killing of LS-174T target cells co-cultured with human PBMCs (viability read-out)” value 9 pM. Against it:
- B1 — lower, 3.1 pM
- B3 — lower, 0.005 pM
- B4 — lower, 0.4 pM
- B5 — lower, 6 pM
- B6 — lower, 6.7 pM
